Source: PMC2063867

Biological target: FAK
Experiment: anti-GFP co-IP, anti-myc blot
Conditions: reference: WT-paxillin-GFP; sites S273

paxillin, sequence (P49024 whole entry, looked up, stated change not applied): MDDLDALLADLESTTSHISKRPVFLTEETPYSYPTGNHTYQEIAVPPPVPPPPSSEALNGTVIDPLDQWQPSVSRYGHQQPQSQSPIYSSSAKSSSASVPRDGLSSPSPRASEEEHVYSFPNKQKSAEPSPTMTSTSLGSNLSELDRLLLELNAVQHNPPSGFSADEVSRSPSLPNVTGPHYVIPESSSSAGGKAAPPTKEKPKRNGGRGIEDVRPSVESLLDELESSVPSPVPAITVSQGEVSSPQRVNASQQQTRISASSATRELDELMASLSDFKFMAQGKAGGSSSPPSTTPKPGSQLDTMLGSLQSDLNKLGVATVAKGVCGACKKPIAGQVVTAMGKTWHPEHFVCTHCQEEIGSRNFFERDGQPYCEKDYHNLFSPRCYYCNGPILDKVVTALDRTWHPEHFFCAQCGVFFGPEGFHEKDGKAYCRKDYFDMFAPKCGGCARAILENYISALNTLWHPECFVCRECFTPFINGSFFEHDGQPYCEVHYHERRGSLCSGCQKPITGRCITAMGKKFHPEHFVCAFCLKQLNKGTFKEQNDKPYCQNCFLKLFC

other: percent increase over reference: 25%
Substance: paxillin (from UniProt P49024) S273A-paxillin-GFP
